For test [1], the target named is T1, Recombinant human IGFBP3 (human, UniProt P17936 28-291).
T1 construct: also called rhIGFBP3; hIGFBP-3
As to the kind of experiment: BLI (Octet/BLItz), antibody captured via Fc on AHC biosensor, antigen in solution. How it is done: (§1) To assess the binding affinity in more detail, affinity measurements were performed using Biomolecular Interaction Analysis performed by an Octet instrument (BLItz System), which is a Biolayer Interferometry (BLI) platform. To establish the assay, the target monoclonal antibody (30 μg/ml in 1% BSA-PBST) was immobilized via Fc on the via AHC biosensor and the interaction with the antigen human IGFBP3 (R&D, cat n° 675 B3) and mouse IGFBP3 (Creative Biomart, cat n° igfbp3 829M) at different concentration was measured.
Background: In BLI a coated tip is dipped into the sample, and binding shifts an interference pattern.

The target of test [2] is T2, mouse IGFBP3 (mouse, UniProt P47878 28-292, limits assumed).
T2 construct: Bought protein; also called mIGFBP-3; murine IGFBP3
T2 sequence (P47878 28-292 limits assumed): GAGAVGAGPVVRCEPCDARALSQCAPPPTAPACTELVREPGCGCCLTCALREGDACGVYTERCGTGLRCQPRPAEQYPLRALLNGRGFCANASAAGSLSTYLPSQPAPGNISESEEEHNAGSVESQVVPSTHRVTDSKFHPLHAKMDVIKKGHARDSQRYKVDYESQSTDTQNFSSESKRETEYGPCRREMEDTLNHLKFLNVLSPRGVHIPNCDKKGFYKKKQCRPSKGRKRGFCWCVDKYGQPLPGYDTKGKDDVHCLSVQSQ
Described as above. The method, then: as §1

The target in test [3] is T1, Recombinant human IGFBP3. Briefly: cell-based or functional assay.
The target of test [4] is T1, Recombinant human IGFBP3. Briefly: ELISA: rhIGFBP3 2 µg/ml coated directly; scFv-Fc titrated 0.01-10 µg/ml; detection goat anti-human Fc-HRP, Abs 450 nm. The method, then:
CVC microplates were coated with: i) 100 μl/well of 2 μg/ml rhIGFBP3 dissolved in PBS or PBS alone (no coating) and incubated 60 minutes at RT; ii) 100 μl/well of 2 μg/ml anti-IGFBP3 (LS-C45037 LSBio) and incubated o.n at 4° C. Plates were washed with H₂O-Tween20 (0.05%) and incubated with the blocking reagent (2% BSA-PBS-T (0.05%)). For condition ii) 100 μl/well of 2 μg/ml rhIGFBP3 was incubated o.n at 4° C. After washing the newly generated antibodies (in 2% BSA-PBS-T (0.05%)) were titrated onto the plate and incubated for 1 hour at RT. After washing steps, detection of bound antibodies was performed using a goat anti-human Fc-HRP antibody (Sigma A0170) in 2% BPS-PBS-T (0.05%) followed by washing and read out with TMB (100 μl/well). ELISA plates were then read measuring the absorbance at 450 nm.
(In general: ELISA stands for enzyme-linked immunosorbent assay.)

The target in test [5] is T1, Recombinant human IGFBP3. Briefly: competitive ELISA: plate coated with rhIGFBP3 4 µg/ml; ecto-TMEM219 10 µg/ml added with the antibody (10 µg/ml per paragraph 174); detection anti-HisTag HRP; blocked ligand: ecto-TMEM219. How it is done:
FIG. 5. IGFBP3-Ecto-TMEM219 binding in the presence of newly generated anti-IGFBP3 mAbs (n=11, YU139 antibodies) or Ecto-TMEM219 alone or monoclonal anti-IGFBP3 commercially available (LSBIO LS-C45037/clone 83.8F9, mAnti-IGFBP3) tested by using a competitive ELISA screening assay. In this assay, the microtiter plate was coated with rhlGFBP3, and labeled ecto-TMEM219 added. Each candidate monoclonal antibody was added and its ability to displace ecto-TMEM219 was assessed by measuring Absorbance after the plate was washed. Boxed are anti-IGFBP3 antibodies able to achieve the highest reduction in Ecto-TMEM219 signal (1-way ANOVA, p<0.00001).
Microplate was coated with 50 μl/well of 4 μg/ml rhlGFBP3 dissolved in PBS or PBS alone (no coating). Plate was incubated 90 minutes at 37° C. and washed with PBS (300 μl/well) and incubated with the blocking reagent (200 μl/well) 2 hours at room temperature. Samples were then diluted in the diluent solution (50 μl/well) and added to the plate as follows: diluent solution (none), ecto-TMEM 10 μg/ml, ecto-TMEM 10 μg/ml+anti-IGFBP3 mAbs 10 μg/ml, anti-IGFBP3 mAbs 10 μg/ml alone. After washing steps, plate was then incubated at room temperature for 1 hour with anti 6×His tag HRP diluted 1:2000 in Diluent solution (50 μl/well). ELISA plate was then read after adding visualization solution at ELISAreader and adsorbance was measured.

The target in test [6] is T1, Recombinant human IGFBP3. As to the kind of experiment: BLI (Octet/BLItz).
For test [7], the target named is T2, mouse IGFBP3. As to the kind of experiment: BLI (Octet/BLItz).

In general, Kd refers to the free concentration of one partner at which half of the binding sites on the other are occupied at equilibrium, for simple one-to-one binding.

T1 sequence (P17936 28-291 limits assumed): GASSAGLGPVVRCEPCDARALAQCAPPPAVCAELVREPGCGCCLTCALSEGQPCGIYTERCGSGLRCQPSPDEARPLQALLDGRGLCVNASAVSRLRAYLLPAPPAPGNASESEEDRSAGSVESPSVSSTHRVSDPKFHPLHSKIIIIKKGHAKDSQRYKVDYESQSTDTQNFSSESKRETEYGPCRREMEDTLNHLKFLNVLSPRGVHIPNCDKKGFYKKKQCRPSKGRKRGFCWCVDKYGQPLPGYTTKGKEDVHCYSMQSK

B1: YU139-A03 (Fc fusion)
VH: QVQLVQSGGGVVQPGRSLRLSCAASGFTFSSYGIHWVRQAPGKGLEWVAIVSYDGRHKYYADSVKGRFTISRDDSKNTIYLQMDSLRAEDTAVYYCAKDSGNSGLEGIHDYWGQGTLVTVSS
VL: DVVMTQSPSSVSASVGDRVTITCRASQGISSWLAWYQQKPGKAPKLLIYAASSLQSGVPSRFSGSGSGTDFTLTISSLQPEDFGTYYCQQANSFPLTFGGGTKVEIK
notes: The format used in the Octet assay is not restated (captured via Fc)
In the case of B1, the Kd with Recombinant human IGFBP3 [1] was 328 nM; with mouse IGFBP3 [2], 735 nM. Besides, in the test with Recombinant human IGFBP3 [3], the “expression of ISCs markers EphB2 and LGR5 (RT-PCR) in IGFBP3-treated mini-guts” value (“expression” for short) is ≥ 50%.

B2: YU139-G01 (Fc fusion)
VH: QMQLVQSGAEVKMPGASVKVSCKASGYTFTSYGISWVRQAPGQGLEWMGWISAYNGNTYYAQKLQGRVTMTADTSTSTAYMDLRSLRSDDTAVYYCARLSYYNYAMDVWGQGTTVTVSS
VL: QSALTQPPSASGSPGQSVTISCTGTSSDVGGYNHVSWYQQHPGKAPKLMIYEVSNRPSGVPNRFSGSKSGNTASLTISGLQAEDEADYYCSSYTSSNTWVFGGGTKLTVL
Turning to B2, in the test with Recombinant human IGFBP3 [4], the binding result was “binds”.

B3: YU139-C01 (Fc fusion)
VH: QVQLVQSGAEVKKPGASVKVSCKASGYTFTSYGISWVRQAPGQGLEWMGWINTYNGNTNYAQKLQGRVTMTTDTSTTTAYMELRSLRSDDTAVYYCARDIGYSGSYYSPYYYYGMDVWGQGTTVTVSS
VL: SSELTQDPAVSVALGQTVRITCQGDGLRNYFASWYQQKPGQAPVLVIYGKNNRPSGIPDRFSGSSSGNTASLRIAGAQAEDEADYYCNSRDGSGKHLVFGGGTKLTV
notes: The format used in the Octet assay is not restated (captured via Fc); also called Yu139-CO1
Take B3: the figures for the Kd with Recombinant human IGFBP3 [1] and with mouse IGFBP3 [2] were 1.69 nM and 342 nM, respectively. The “expression” value with Recombinant human IGFBP3 [3] is ≥ 50%.

B4: YU139-B01 (Fc fusion)
VH: QVQLQESGPGLVKPSGTLSLTCAVSGGSISSSNWWSWVRQPPGKGLEWIGEVYHSGSTNYNPSLKSRVTISVDKSKNQFSLKLSSVTAADTAVYYCARNIPLSSSWPNYYYYYGMDVWGQGTTVTVSS
VL: SSELTQDPAVSVALGQTVRITCQGDSLRNYYASWYQQKPGQAPVLVIYGKNNRPSGIPDRFSGSSSGNTASLTINGAQAEDEADYYCNSRDSSAKHWVFGGGTKLTV
Consider B4, for which the binding result in the test with Recombinant human IGFBP3 [5] was “binds”.

B5: YU139-A02 (Fc fusion)
VH: QVQLVQSGAEVKKPGSSVKVSCKASGGTFSSYAISWVRQAPGQGLEWMGGIIPIFGTANYAQKFQGRVTITADESTSTAYMELSSLRSEDTAVYYCARDYYDSSGYYFDAFDIWGQGTMVTVSS
VL: QAGLTQPPSASGTPGQRVIISCSGSSSNIGTNTVSWYQHLPGTAPKLLIYNNNERPSGVPRRFSGSRSGASASLAISGLQSDDEAHYYCAAWDDNLTGLVFGGGTKLTVL
Turning to B5, in the test with Recombinant human IGFBP3 [4], the binding result is on record as “binds”.

B6: YU139-D02 (Fc fusion)
VH: EVQLVESGGGVVQPGRSLRLSCAASGFTFSSYGMHWVRQAPGKGLEWVAVISYDGSNKYYADSVKGRFTISRDNSKNTLYLQMNSLRAEDTAVYYCAKDNGDYGYYYYYYMDVWGKGTTVTVSS
VL: DIQMTQSPSTLSASVGDRVTITCRASQSISRWLAWYQQKPGKAPKLLIYDASSLESGVPSRFSGSGSGTEFTLTISSLQPDDFATYYCQQSYSTPLTFGPGTKVDIK
Take B6: the binding result with Recombinant human IGFBP3 [5] is “binds”.

B7: YU139-D03 (Fc fusion)
VH: QVQLVQSGAEVKKPGASVKVSCKASGYTFSDYGISWVRQAPGQGLEWMGWISGDNVKTTYAKKFQGRVTLTTDTSTSTAYMELRSLTSDDTAAYYCARGGIVFDYWGQGTLVTVSS
VL: ETTLTQSPGTLSLSPGERATLSCRASQSVSGNYLAWYQQKPGQPPRLLIFGASSRATGIPDRFSGSGSGTDFTLTISRLEPEDFGVYYCQQYGSSPGTFGQGTKVEIK
As to B7, the binding result in the test with Recombinant human IGFBP3 [5] is “binds”.

B8: YU139-G03 (Fc fusion)
VH: QVQLQQSGAEVKKPGSSVKVSCKASGGIFSTYVTSWVRQAPGQGLEWMGGIIPMFDTTEYAQKLEGRVTITVDESTNTAYMELSSLRFEDTAVYYCARAGGLSHFDYWGQGTLVTVSS
VL: EIVLTQSPLSLPVTPGEPASISCRSSQSLLHSNGNNYLNWYLQKPGQSPQLLIYLSSRRASGVPDRFSGSGSGTDFTLKISRVEAEDVGVYYCMQGLQTPWTFGQGTKVETK
B8: the “expression” value with Recombinant human IGFBP3 [3] is ≥ 50%.

B9: YU139-H03 (Fc fusion)
VH: QVQLVQSGAEVKKPGASVKVSCKASGYTFTSYGISWVRQAPGQGLEWMGWISAYNGNTNYAQKLQGRVTMTTDTSTSTAYMELRSLRSDDTAVYYCARVKWELGWAFDIWGQGTMVTVSS
VL: QAVLTQPPSVSGAPGQRVTISCTGSSSNIGAGYDVHWYQQLPGTAPKLLIYGNSNRPSGVPDRFSGSKSGTSAPLAITGLQAEDEADYYCQSYDSSLSTVFGGGTKLTVL
notes: as for B1
In the case of B9, in the test with Recombinant human IGFBP3 [1], the Kd is 4000 nM. The “expression” value in the test with Recombinant human IGFBP3 [3] was ≥ 50%.

B10: ecto-TMEM219 (receptor)
chain: THRTGLRSPDIPQDWVSFLRSFGQLTLCPRNGTVTGKWRGSHVVGLLTTLNFGDGPDRNKTRTFQATVLGSQMGLKGSSAGQLVLITARVTTERTAGTCLYFSAVPGILPSSQPPISCSEEGAGNATLSPRMGEECVSVWSHEGLVLTKLLTSEELALCGSR
notes: it is put last here only for want of better knowledge; also called EctoTMEM-His; extracellular domain of TMEM219; not shown: His tag (detected with anti 6xHis tag HRP)
For B10, the values for the equilibrium dissociation constant (Kd) in the test with Recombinant human IGFBP3 [6] and in the test with mouse IGFBP3 [7] were 35 nM and 60 nM, respectively.

For the origin of these results see US20250270306A1 (OSPEDALE SAN RAFFAELE S R L, published 2025).
